We go through 37 molecules from patent publication US20230242902A1, “A HIGHLY ERROR-PRONE […] R[…] FOR TARGETED CONTINUOUS EVOLUTION IN VIVO” (The Regents of the University of California, priority 2017, published 2023).

First the molecules themselves.
B1: S733Q: TP-DNAP1 variant (protein)
chain: MDYKDKALNDLRNVYADFDSLPLDFRQILIKDRATLLQKEDVEKKILERQEDAKKYAEYLKQSEIPERISLPNIKRHKGVSISFEETSEDMVLEPRPFIFDGLNIRCFRRETIFSLKNKILNMVKESSSFKNVSRQSVSFMYFKIFNKGKVIASTKSVNIYEDKIDERLEDLCNNFDDVLKKIIDVTYGYESLFVSETYSYVIFYAKSIYFPQPRCVNNWGNNIPNILTFDSFKLFTANKNNVSCIKQCSRFLWQKDFNTLEEMIEYKNGNICIVTPQLHINDVRDIKSFNDIRLYSESPIKTFSVIDNTITYLFYFKEHLGVIFNITKSRHDRRVTKFSPLSKFSDVKNITVCFDIESYFDPEKESNQVNIPFICCASIIYNKVIGNIVDFEGRDCVAQMIEYVVDICGELNISSVELIAHNGGGYDFHYILSSMYNPAAIKNILIRNNSFISFNFAHDGVKFSVKDSYSFLLCSLANASKAFLNEETFKKTDFPHHDLKTADDLYKVYKEWSSVNTEINHVVEKEKLLITSEHIVNFTKNDKSKTLIEWSKDYCRNDVLVLSKVWLEFKNAVEDIFNCELVDQTMTLAGLSYKLFQANMPFDVELRHPNKEDYFNMREALIGGRCISVNGIYKDVLCLDVKSLYPASMAFYDQPYGSFKRVSSRPKDELGIYYVRVTPNRNNKSNFFPIRSHNKITYNNFEESTYIAWYTNVDIDIGLSEGHNIEYIPFDQYGNIGYSWSKKGKIFEKYIKDVLYKLKIKYEKQNNKVKRNVIKIIMNSLWGKFAQKWVNFEYFIKSEDDIDFESEEAYKIWDTDFMLIKKIKESTYSSKPIQNGVFTLSWARYHMKSIWDAGAKEGAECIYSDTDSIFVHKEHFKKNAKFMLNGLKVPIIGSEVGQLELECEFDKLLCAGKKQYMGFYTYFQDGKPCIKEKKRFKGIPSNYIIPELYAHLLSGADKEAKIQFLKFRREWGSVKGYIENKTVKAT
B2: N309C: TP-DNAP1 variant (protein)
chain: B1 chain with N309C, Q733S
B3: I307L: TP-DNAP1 variant (protein)
chain: B1 chain with I307L, Q733S
B4: T310D: TP-DNAP1 variant (protein)
chain: B1 chain with T310D, Q733S
B5: K302A: TP-DNAP1 variant (protein)
chain: B1 chain with K302A, Q733S
B6: F304R: TP-DNAP1 variant (protein)
chain: B1 chain with F304R, Q733S
B7: I301S: TP-DNAP1 variant (protein)
chain: B1 chain with I301S, Q733S
B8: T303L: TP-DNAP1 variant (protein)
chain: B1 chain with T303L, Q733S
B9: N309K, I311G: TP-DNAP1 variant (protein)
chain: B1 chain with N309K, I311G, Q733S
B10: I301A: TP-DNAP1 variant (protein)
chain: B1 chain with I301A, Q733S
B11: E298Y: TP-DNAP1 variant (protein)
chain: B1 chain with E298Y, Q733S
B12: T303M: TP-DNAP1 variant (protein)
chain: B1 chain with T303M, Q733S
B13: Y829I: TP-DNAP1 variant (protein)
chain: B1 chain with Q733S, Y829I
B14: T310N: TP-DNAP1 variant (protein)
chain: B1 chain with T310N, Q733S
B15: S305N: TP-DNAP1 variant (protein)
chain: B1 chain with S305N, Q733S
B16: T303W: TP-DNAP1 variant (protein)
chain: B1 chain with T303W, Q733S
B17: D308Q: TP-DNAP1 variant (protein)
chain: B1 chain with D308Q, Q733S
B18: I301V: TP-DNAP1 variant (protein)
chain: B1 chain with I301V, Q733S
B19: S305G: TP-DNAP1 variant (protein)
chain: B1 chain with S305G, Q733S
B20: I301E: TP-DNAP1 variant (protein)
chain: B1 chain with I301E, Q733S
B21: K959A: TP-DNAP1 variant (protein)
chain: B1 chain with Q733S, K959A
B22: K959M: TP-DNAP1 variant (protein)
chain: B1 chain with Q733S, K959M
B23: I301L: TP-DNAP1 variant (protein)
chain: B1 chain with I301L, Q733S
B24: F304A: TP-DNAP1 variant (protein)
chain: B1 chain with F304A, Q733S
B25: I824E: TP-DNAP1 variant (protein)
chain: B1 chain with Q733S, I824E
B26: F304Y: TP-DNAP1 variant (protein)
chain: B1 chain with F304Y, Q733S
B27: Y829F: TP-DNAP1 variant (protein)
chain: B1 chain with Q733S, Y829F
B28: K962Q: TP-DNAP1 variant (protein)
chain: B1 chain with Q733S, K962Q
B29: I301M: TP-DNAP1 variant (protein)
chain: B1 chain with I301M, Q733S
B30: T303H: TP-DNAP1 variant (protein, listed as Kluyveromyces lactis)
chain: B1 chain with T303H, Q733S
B31: I301K: TP-DNAP1 variant (protein)
chain: B1 chain with I301K, Q733S
B32: I301C: TP-DNAP1 variant (protein)
chain: B1 chain with I301C, Q733S
B33: E298V: TP-DNAP1 variant (protein)
chain: B1 chain with E298V, Q733S
B34: E298P: TP-DNAP1 variant (protein)
chain: B1 chain with E298P, Q733S
B35: I301Y: TP-DNAP1 variant (protein)
chain: B1 chain with I301Y, Q733S
B36: S831T: TP-DNAP1 variant (protein)
chain: B1 chain with Q733S, S831T
B37: E298S: TP-DNAP1 variant (protein)
chain: B1 chain with E298S, Q733S

Changes are numbered by the printed parent chain. Names and notes keep the numbering of the source.

This experiment relates to p1. The experiment in a line: p1 copy number by p1-encoded mKate2 fluorescence. The format is cell-based, S. cerevisiae. As to conditions: OR-Y24, measured in triplicate. The essentials:
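Steps: transform TP-DNAP1 variant into OR-Y24; passage until w.t. p1 displaced; dilute 1:10,000 and grow to saturation in triplicate; measure p1-encoded mKate2 fluorescence; convert to copy number via linear qPCR-based calibration. Four high-copy variants were checked directly by qPCR.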
Take B1: the “Mean fold-increase over w.t. (p1 copy number)” value (“Mean fold-increase” below) came out at 1.86 fold. Then B2, with 2.25 fold; and B3, with 2.76 fold. Next, B4: 2.64 fold; B5: 1.88 fold; B6: 3.49 fold. Take B7: the “Mean fold-increase” value was 2.29 fold. With B8, the “Mean fold-increase” value amounted to 2.41 fold. In the case of B9, the “Mean fold-increase” value was found to be 2.2 fold.

In the case of B10, the “Mean fold-increase” value is reported as 2.41 fold. Next, B11: 2.17 fold; B12: 2.5 fold. Next, B13: 1.86 fold. Turning to B14, the “Mean fold-increase” value came to 2.83 fold. Next, B15: 2.3 fold; B16: 2.96 fold; B17: 2.15 fold. In the case of B18, the “Mean fold-increase” value is listed as 2.53 fold. Then B19, with 2.53 fold; and B20, with 2.57 fold; and B21, with 1.55 fold. Then B22, with 2.02 fold; and B23, with 2.94 fold; and B24, with 2.14 fold.

B25: the “Mean fold-increase” value was found to be 2.12 fold. Next, B26: 2.41 fold. Then B27, with 2.46 fold; and B28, with 1.56 fold. On to B29, for which the “Mean fold-increase” value was determined as 2.76 fold. Next, B30: 2.3 fold; B31: 2.71 fold. Then B32, with 2.46 fold. Then B33, with 2.64 fold; and B34, with 2.57 fold.

For the molecule B35, the “Mean fold-increase” value was found to be 3.28 fold. Then B36, with 1.71 fold; and B37, with 2.43 fold.
